# Literature values as cited in article PMC12687026.
# Experiments:
# His194 = assay: kinetics; conditions: green (unconverted) LEA
# Glu212 = assay: kinetics; conditions: green (unconverted) LEA
substance,measurement,setting,value
"LEA (least evolved ancestor), engineered Kaede-like green-to-red photoconvertible fluorescent protein (synthetic construct (reconstructed ancestral coral fluorescent protein))",pKa,His194,∼7.5
same,pKa,Glu212,∼4.5
